In patent US20210380680A1 (ZLLP, published 2021):
Where two headings read alike, the source gives them in different places.

What was measured:
[1] = biological target: T1, human Claudin 18.2 (CLDN18.2) (human, UniProt P56856-2 1-261); experiment: FACS on CHO-CLDN18.2 cells
T1 construct: whole, on cells; recombinantly expressed on CHO, HEK293, NCI-N87, NUGC4 or PANC-1 cells; also called CHO-CLDN18.2

[2] = biological target: T1, human Claudin 18.2 (CLDN18.2); experiment: cell-based or functional assay
[3] = biological target: T1, human Claudin 18.2 (CLDN18.2); experiment: cell-based or functional assay; remark: listed apart in the source
[4] = biological target: T1, human Claudin 18.2 (CLDN18.2); experiment: FACS on CHO-CLDN18.2 cells; remark: listed apart in the source
[5] = biological target: T1, human Claudin 18.2 (CLDN18.2); experiment: FACS Exp. 1, MFI ratio CHO-18.2 over CHO-18.1
[6] = biological target: T2, CLDN18.2 endogenously expressed on SNU620 gastric cancer cells (UniProt P56856-2 1-261, limits assumed); experiment: FACS Exp. 3, SNU620 cells
T2 construct: whole, on cells; also called SU620

EC50 [4] [nM]	MFI_CHO-18.2/CHO-18.1 (@30 ug/ml) [5]	MFI_SNU620 (@30 ug/ml) [6] [MFI]	Binder	also measured
			413H9F8-H4L3 (antibody, V domains shown, humanized IgG; constant regions not specified) VH: EVQLVESGGGLVQPGGSLRLSCAASGFTFSSFGMHWVRQAPGKGLEWVAYISSGSSPIYYVDKLKGRFTVSRDNAKNSLYLQMTSLRAEDTAVYYCARAGYAVRNALDYWGQGTLVTVSS VL: DIVMTQSPDSLAVSLGERATINCKSSQSLLNVGNQKNYLAWYQQKPGQPPKLLIYGASTRESGVPDRFIGSGSGTDFTLTISSLQAEDVAVYFCQNDLFYPLTFGGGTKVEIK	EC50 [1]: 2.62 nM; % ADCC @ 6.67 nM, NCI-N87-CLDN18.2, FcR-TANK [2]: 15.4%; ADCC EC50, NCI-N87-CLDN18.2, FcR-TANK [2]: 0.47 nM; % specific cytotoxicity @ 6.67 nM, NUGC4-CLDN18.2, PBMC [3]: 27.8%; ADCC EC50, NUGC4-CLDN18.2, PBMC [3]: 7.01 nM
3.69			413H9F8-cp10 (antibody, V domains shown, humanized IgG; constant regions not specified) VH: EVQLVESGGGLVQPGGSLRLSCAASGFTFSSFGMHWVRQAPGKGLEWVSYISSGSSPIYYVDKLKGRFTISRDNAKNSLYLQMNSLRAEDTAVYYCARAGYAVRNALDYWGQGTLVTVSS VL: DIVMTQSPPTLSLSPGERVTLSCKSSQSLLNVGNQKNYLAWYQQKPGQAPKLLIYGASTRESGIPDRFSGSGSGTDFTLTISSLQPEDFAVYFCQNDLFYPLTFGGGTKVEIK	
2.32			413H9F8-cp6 (antibody, V domains shown, humanized IgG; constant regions not specified) VH: DVQLVESGGGLVQPGGSLRLSCAASGFTFSSFGMHWVRQAPGKGLEWVAYISSGSSPIYYVDKLKGRFTVSRDNAKNSLYLQMNSLRAEDTAVYYCARAGYAVRNALDYWGQGTLVTVSS VL: DIVMTQSPPTLSLSPGERVTLSCKSSQSLLNVGNQKNYLAWYQQKPGQAPRLLIYGASTRESGIPDRFSGSGSGTDFTLTISSLQPEDFAVYYCQNDLFYPLTFGGGTKVEIK	
2.28			413H9F8-cp4 (antibody, V domains shown, humanized IgG; constant regions not specified) VH: EVQLVESGGGLVQPGGSLRLSCAASGFTFSSFGMHWVRQAPGKGLEWVSYISSGSSPIYYVDKLKGRFTISRDNAKNSLYLQMNSLRAEDTAVYYCARAGYAVRNALDYWGQGTLVTVSS VL: DIVMTQSPPTLSLSPGERVTLSCKSSQSLLNVGNQKNYLAWYQQKPGQAPRLLIYGASTRESGIPDRFSGSGSGTDFTLTISSLQPEDFAVYYCQNDLFYPLTFGGGTKVEIK	
3.01			413H9F8-cp12 (antibody, V domains shown, humanized IgG; constant regions not specified) VH: DVQLVESGGGLVQPGGSLRLSCAASGFTFSSFGMHWVRQAPGKGLEWVAYISSGSSPIYYVDKLKGRFTVSRDNAKNSLYLQMNSLRAEDTAVYYCARAGYAVRNALDYWGQGTLVTVSS VL: DIVMTQSPPTLSLSPGERVTLSCKSSQSLLNVGNQKNYLAWYQQKPGQAPKLLIYGASTRESGIPDRFSGSGSGTDFTLTISSLQPEDFAVYFCQNDLFYPLTFGGGTKVEIK	
2.47			413H9F8-cp7 (antibody, V domains shown, humanized IgG; constant regions not specified) VH: EVQLVESGGGLVQPGGSLRLSCAASGFTFSSFGMHWVRQAPGKGLEWVSYISSGSSPIYYVDKLKGRFTISRDNAKNSLYLQMNSLRAEDTAVYYCARAGYAVRNALDYWGQGTLVTVSS VL: DIVMTQSPPTLSLSPGERVTLSCKSSQSLLNVGNQKNYLAWYQQKPGQAPKLLIYGASTRESGIPDRFSGSGSGTDFTLTISSLQPEDFAVYYCQNDLFYPLTFGGGTKVEIK	% ADCC @ 6.67 nM, NCI-N87-CLDN18.2, FcR-TANK [2]: 13.3%; ADCC EC50, NCI-N87-CLDN18.2, FcR-TANK [2]: 0.28 nM; % specific cytotoxicity @ 6.67 nM, NUGC4-CLDN18.2, PBMC [3]: 29.7%; ADCC EC50, NUGC4-CLDN18.2, PBMC [3]: 6.68 nM
2.54			413H9F8-cp5 (antibody, V domains shown, humanized IgG; constant regions not specified) VH: DVQLVESGGGLVQPGGSLRLSCAASGFTFSSFGMHWVRQAPGKGLEWVAYISSGSSPIYYVDKLKGRFTISRDNAKNSLYLQMNSLRAEDTAVYYCARAGYAVRNALDYWGQGTLVTVSS VL: DIVMTQSPPTLSLSPGERVTLSCKSSQSLLNVGNQKNYLAWYQQKPGQAPRLLIYGASTRESGIPDRFSGSGSGTDFTLTISSLQPEDFAVYYCQNDLFYPLTFGGGTKVEIK	% ADCC @ 6.67 nM, NCI-N87-CLDN18.2, FcR-TANK [2]: 14.1%; ADCC EC50, NCI-N87-CLDN18.2, FcR-TANK [2]: 0.27 nM; % specific cytotoxicity @ 6.67 nM, NUGC4-CLDN18.2, PBMC [3]: 29.6%; ADCC EC50, NUGC4-CLDN18.2, PBMC [3]: 7.75 nM
2.09			413H9F8-cp3 (antibody, V domains shown, humanized IgG; constant regions not specified) VH: DVQLVESGGGLVQPGGSLRLSCAASGFTFSSFGMHWVRQAPGKGLEWVAYISSGSSPIYYVDKLKGRFTVSRDNAKNSLYLQMNSLRAEDTAVYYCARAGYAVRNALDYWGQGTLVTVSS VL: EIVMTQSPPTLSLSPGERVTLSCKSSQSLLNVGNQKNYLAWYQQKPGQAPRLLIYGASTRESGIPARFSGSGSGTDFTLTISSLQPEDFAVYYCQNDLFYPLTFGGGTKVEIK	% ADCC @ 6.67 nM, NCI-N87-CLDN18.2, FcR-TANK [2]: 11.1%; ADCC EC50, NCI-N87-CLDN18.2, FcR-TANK [2]: 0.22 nM; % specific cytotoxicity @ 6.67 nM, NUGC4-CLDN18.2, PBMC [3]: 30.5%; ADCC EC50, NUGC4-CLDN18.2, PBMC [3]: 5.86 nM
2.72			413H9F8-cp8 (antibody, V domains shown, humanized IgG; constant regions not specified) VH: DVQLVESGGGLVQPGGSLRLSCAASGFTFSSFGMHWVRQAPGKGLEWVAYISSGSSPIYYVDKLKGRFTISRDNAKNSLYLQMNSLRAEDTAVYYCARAGYAVRNALDYWGQGTLVTVSS VL: DIVMTQSPPTLSLSPGERVTLSCKSSQSLLNVGNQKNYLAWYQQKPGQAPKLLIYGASTRESGIPDRFSGSGSGTDFTLTISSLQPEDFAVYYCQNDLFYPLTFGGGTKVEIK	% ADCC @ 6.67 nM, NCI-N87-CLDN18.2, FcR-TANK [2]: 13.1%; ADCC EC50, NCI-N87-CLDN18.2, FcR-TANK [2]: 0.27 nM; % specific cytotoxicity @ 6.67 nM, NUGC4-CLDN18.2, PBMC [3]: 27.7%; ADCC EC50, NUGC4-CLDN18.2, PBMC [3]: 8.85 nM
2.21			413H9F8-cp9 (antibody, V domains shown, humanized IgG; constant regions not specified) VH: DVQLVESGGGLVQPGGSLRLSCAASGFTFSSFGMHWVRQAPGKGLEWVAYISSGSSPIYYVDKLKGRFTVSRDNAKNSLYLQMNSLRAEDTAVYYCARAGYAVRNALDYWGQGTLVTVSS VL: DIVMTQSPPTLSLSPGERVTLSCKSSQSLLNVGNQKNYLAWYQQKPGQAPKLLIYGASTRESGIPDRFSGSGSGTDFTLTISSLQPEDFAVYYCQNDLFYPLTFGGGTKVEIK	
2.61			413H9F8-cp11 (antibody, V domains shown, humanized IgG; constant regions not specified; also called 413H9F8-cp811) VH: DVQLVESGGGLVQPGGSLRLSCAASGFTFSSFGMHWVRQAPGKGLEWVAYISSGSSPIYYVDKLKGRFTISRDNAKNSLYLQMNSLRAEDTAVYYCARAGYAVRNALDYWGQGTLVTVSS VL: DIVMTQSPPTLSLSPGERVTLSCKSSQSLLNVGNQKNYLAWYQQKPGQAPKLLIYGASTRESGIPDRFSGSGSGTDFTLTISSLQPEDFAVYFCQNDLFYPLTFGGGTKVEIK	
	521	1060	hz282-2 (antibody, V domains shown, humanized IgG; constant regions not specified) VH: QVQLQESGPGLVKPSETLSLTCTVSGFSLTSYNVYWIRQPPGKGLEWIGVIWNTGATRYNSALKSRVTISKDTSKNQVSLKLSSVTAADTAVYYCARDSAMPAIPFAYWGQGTLVTVSS VL: DIVMTQSPDSLAVSLGERATINCKSSQSLFGSVRQKNYLAWYQQKPGQPPKLLIYLASTRESGVPDRFSGSGSGTDFTLTISSLQAEDVAVYYCQQYYDIPWTFGGGTKVEIK	
	624	1250	hz282-7 (antibody, V domains shown, humanized IgG; constant regions not specified) VH: QVQLQESGPGLVKPSETLSLTCTVSGFSLTSYNVYWIRQPPGKGLEWIGVIWNTGATRYNSALKSRVTISKDTSKSQVSLKLSSVTAADTAVYYCARDSAMPAIPFAYWGQGTLVTVSS VL: DIVMTQSPDSLAVSLGERATINCKSSQSLFGSVRQKNYLAWYQQKPGQSPKLLIYLASTRESGVPDRFSGSGSGTDFTLTISSLQAEDVAKYYCQQYYDIPWTFGGGTKVEIK	
	798	1220	hz282-14 (antibody, V domains shown, humanized IgG; constant regions not specified) VH: QVQLQESGPGLVKPSETLSLTCTVSGFSLTSYNVYWIRQPPGKGLEWIGVIWNTGATRYNSALKSRVTISKDTSKNQVSLKLSSVTAADTAVYYCARDSAMPAIPFAYWGQGTLVTVSS VL: DIQMTQSPSSLSASVGDRVTITCKSSQSLFGSVRQKNYLAWYQQKPGKSPKLLIYLASTRESGVPDRFSGSGSGTDFTLTISSLQPEDFAKYYCQQYYDIPWTFGGGTKVEIK	
	550	1280	hz282-16 (antibody, V domains shown, humanized IgG; constant regions not specified) VH: QVQLQESGPGLVKPSETLSLTCTVAGFSLTSYNVYWIRQPPGKGLEWIGVIWNTGATRYNSALKSRVTISKDTSKSQVSLKLSSVTAADTAVYYCARDSAMPAIPFAYWGQGTLVTVSS VL: DIQMTQSPSSLSASVGDRVTITCKSSQSLFGSVRQKNYLAWYQQKPGKSPKLLIYLASTRESGVPDRFSGSGSGTDFTLTISSLQPEDFAKYYCQQYYDIPWTFGGGTKVEIK	
	781	1210	hz282-18 (antibody, V domains shown, humanized IgG; constant regions not specified) VH: QVQLQESGPGLVKPSETLSLTCTVSGFSLTSYNVYWIRQPPGKGLEWIGVIWNTGATRYNSALKSRVTISKDTSKNQVSLKLSSVTAADTAVYYCARDSAMPAIPFAYWGQGTLVTVSS VL: DIVMTQSPSSLSASVGDRVTINCKSSQSLFGSVRQKNYLAWYQQKPGKSPKLLIYLASTRESGVPDRFSGSGSGTDFTLTISSLQPEDFAKYYCQQYYDIPWTFGGGTKVEIK	
	521	1290	hz282-6 (antibody, V domains shown, humanized IgG; constant regions not specified) VH: QVQLQESGPGLVKPSETLSLTCTVSGFSLTSYNVYWIRQPPGKGLEWIGVIWNTGATRYNSALKSRVTISKDTSKNQVSLKLSSVTAADTAVYYCARDSAMPAIPFAYWGQGTLVTVSS VL: DIVMTQSPDSLAVSLGERATINCKSSQSLFGSVRQKNYLAWYQQKPGQSPKLLIYLASTRESGVPDRFSGSGSGTDFTLTISSLQAEDVAKYYCQQYYDIPWTFGGGTKVEIK	
